From patent US5344777

Molecular target: protein having a molecular weight of about 44,000 which constitutes the membrane-bound alcohol dehydrogenase complex of Acetobacter altoacetigenes MH-24 (cytochrome c) (Acetobacter altoacetigenes MH-24)

ADH enzyme activity (U/mg protein) in cell homogenate of transformed ADH-deleted mutant 10-80: 0.4 U/mg protein
Substance: protein having a molecular weight of about 72,000 which constitutes the membrane-bound alcohol dehydrogenase complex of Acetobacter altoacetigenes MH-24 (enzyme)
